Laboratory results taken from PMC7587441, “Plasmodium falciparum Apicomplexan-Specific Glucosamine-6-Phosphate N-Acetyltransferase Is Key for Amino Sugar Metabolism and Asexual Blood Stage Development” (mBio, 2020).

Substrate: CC(=O)SCCNC(=O)CCNC(=O)[C@H](O)C(C)(C)COP(=O)(O)OP(=O)(O)OC[C@H]1O[C@@H](n2cnc3c(N)ncnc32)[C@H](O)[C@@H]1OP(=O)(O)O
Assay: DTNB colorimetric assay of CoA release
Type: biochemical, Cryptosporidium parvum
Conditions: 2000 μM GlcN6P fixed, 25 mM Tris-HCl, 150 mM NaCl, pH 7.2, room temperature
Description: DTNB colorimetric assay of CoA release on CpGNA1

B1: CpGNA1 (Cryptosporidium parvum Iowa II) (protein)
chain: MISSFEVRKATIDDYFELRNLICDVTRCTETLSREQAEERFRYNTYHPYCLVDTENGRIVGYAGFYIIPHLGRKNDSRIEHVIISKEYRNRGLGRLLCKQIIEDAKNKFNCGRIDLTVESHIAKKLYSSLEFEKVNTEVMRNSFLDLTPKSD
notes: N-terminal GST tag kept (not cleaved), pGEX-6P-1, codon-optimized
  Km: 531 ± 80.33 µM
